According to patent publication US20230132049A1 (Genmab, published 2023):
Read-outs that look alike come from different tables or passages of the source.

T1: human CD30 (human, UniProt P28908 19-595)
T1 sequence: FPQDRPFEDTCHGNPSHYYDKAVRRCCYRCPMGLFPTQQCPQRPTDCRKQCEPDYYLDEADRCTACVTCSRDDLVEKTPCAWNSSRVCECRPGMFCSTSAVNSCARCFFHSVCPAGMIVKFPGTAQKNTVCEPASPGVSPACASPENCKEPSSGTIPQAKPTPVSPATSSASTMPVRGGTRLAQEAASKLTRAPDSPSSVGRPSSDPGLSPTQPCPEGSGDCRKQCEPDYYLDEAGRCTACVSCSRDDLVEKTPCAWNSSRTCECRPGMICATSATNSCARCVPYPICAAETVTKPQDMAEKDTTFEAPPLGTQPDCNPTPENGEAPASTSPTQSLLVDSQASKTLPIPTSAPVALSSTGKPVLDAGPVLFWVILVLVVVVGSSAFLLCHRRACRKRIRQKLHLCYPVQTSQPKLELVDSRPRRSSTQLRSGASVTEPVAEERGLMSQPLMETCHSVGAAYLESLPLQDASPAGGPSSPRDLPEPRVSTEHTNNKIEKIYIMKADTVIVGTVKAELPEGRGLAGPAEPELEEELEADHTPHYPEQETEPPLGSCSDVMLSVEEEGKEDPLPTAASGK

T2: rhesus monkey (Macaca mulatta) CD30 (rhesus monkey, UniProt P28908 19-595 (human entry))
T2 construct: Full-length construct expressed in Expi293F cells; also called mmCD30
T2 chain: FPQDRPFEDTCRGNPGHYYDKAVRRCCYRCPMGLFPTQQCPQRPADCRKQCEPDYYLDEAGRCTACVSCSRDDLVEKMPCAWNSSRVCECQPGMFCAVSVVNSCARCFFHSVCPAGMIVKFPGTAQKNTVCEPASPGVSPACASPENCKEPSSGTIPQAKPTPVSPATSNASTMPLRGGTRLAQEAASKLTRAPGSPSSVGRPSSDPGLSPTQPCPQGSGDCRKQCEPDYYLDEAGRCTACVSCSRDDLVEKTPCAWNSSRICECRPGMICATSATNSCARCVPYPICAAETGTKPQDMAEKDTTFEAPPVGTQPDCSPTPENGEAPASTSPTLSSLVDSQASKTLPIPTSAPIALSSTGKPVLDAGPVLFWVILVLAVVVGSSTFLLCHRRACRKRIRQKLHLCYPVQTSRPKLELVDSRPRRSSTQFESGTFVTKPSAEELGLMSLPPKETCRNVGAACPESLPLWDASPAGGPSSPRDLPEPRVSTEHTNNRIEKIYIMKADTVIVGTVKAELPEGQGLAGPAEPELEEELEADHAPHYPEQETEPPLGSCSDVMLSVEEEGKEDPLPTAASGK


Key:
human CD30 [1] = target: T1, human CD30; test: cell-based or functional assay
human CD30 [2] = target: T1, human CD30; test: flow cytometry on Expi293F cells transfected with human CD30
Method: (§1) Cells (3×10⁴ cells/well) were incubated in polystyrene 96-well round-bottom plates (Thermo Scientific, cat. no. 163320) with serial dilutions of antibodies (ranging from 0.0002 to 50 μg/mL in 4-fold dilution steps) in 50 μL staining buffer at 4° C. for 30 min. Experiments were performed in technical duplicate. After washing twice in staining buffer, cells were incubated in 50 μL secondary antibody at 4° C. for 30 min. […] Cells were washed twice in staining buffer, resuspended in 30 μL staining buffer containing 0.4% EDTA and the ToPro-3 viability marker (Invitrogen, cat. no. T3605) diluted 1:10,000. Cells were analyzed on an iQue Screener (Intellicyt Corporation, USA). Binding curves were analyzed using non-linear regression (sigmoidal dose-response with variable slope) using GraphPad Prism V9.0.0 software (GraphPad Software, San Diego, Calif., USA).

[3] = target: T2, rhesus monkey (Macaca mulatta) CD30; test: flow cytometry on Expi293F cells transfected with rhesus monkey CD30
Method: as §1

[4] = target: T2, rhesus monkey (Macaca mulatta) CD30; test: as above
human CD30 [5] = target: T1, human CD30; test: flow cytometry on SU-DHL-1 cells
Method: Binding of CD3×CD30 bispecific antibodies to two CD30-expressing human tumor cell lines SU-DHL-1 (ALCL; ATCC, cat. no. ACC 356) and HDLM-2 (HL; ATCC, cat. no. CRL-2965) was analyzed by flow cytometry.
Cells (3×10⁴ cells/well) were incubated in polystyrene 96-well round-bottom plates (Greiner bio-one, cat. no. 650180) with serial dilutions of antibodies (range 0.0046 to 10 μg/mL in 3-fold dilution steps) in 50 μL staining buffer at 4° C. for 30 min. After washing twice in staining buffer, cells were incubated with 50 μL secondary antibody at 4° C. for 30 min. […] Next, cells were washed twice in staining buffer, resuspended in 100 μL staining buffer supplemented with TO-PRO-3 iodide (Thermo Fisher Scientific; cat. no. T3605; 1:8000 dilution) and analyzed on a FACSCelesta flow cytometer (BD Biosciences, USA). Live cells were gated based on FSC/SSC and absence of TOPRO-3 staining. Binding curves were analyzed by non-linear regression of log-transformed data (sigmoidal dose-response with variable slope, four parameters) using GraphPad Prism V7.02 software (GraphPad Software, San Diego, Calif., USA).

Binder	cytotoxicity IC50 (µg/mL) average, Karpas-299 cells (human CD30 [1]) [µg/mL]	cytotoxicity maximum lysis (%) average, Karpas-299 cells (human CD30 [1]) [%]	EC50 (read off the curve) (human CD30 [2]) [µg/mL]	binding result [3]	binding result [4]	EC50 (read off the curve) (human CD30 [5]) [µg/mL]
bsG1-huCD3-FEAL×CD30-HRS-3-FEAR (bispecific antibody, human IgG1, kappa, lambda) heavy 1: not shown light 1: not shown heavy 2: QVQLQQSGAELARPGASVKMSCKASGYTFTTYTIHWVRQRPGHDLEWIGYINPSSGYSDYNQNFKGKTTLTADKSSNTAYMQLNSLTSEDSAVYYCARRADYGNYEYTWFAYWGQGTTVTVSSASTKGPSVFPLAPSSKSTSGGTAALGCLVKDYFPEPVTVSWNSGALTSGVHTFPAVLQSSGLYSLSSVVTVPSSSLGTQTYICNVNHKPSNTKVDKRVEPKSCDKTHTCPPCPAPEFEGGPSVFLFPPKPKDTLMISRTPEVTCVVVAVSHEDPEVKFNWYVDGVEVHNAKTKPREEQYNSTYRVVSVLTVLHQDWLNGKEYKCKVSNKALPAPIEKTISKAKGQPREPQVYTLPPSREEMTKNQVSLTCLVKGFYPSDIAVEWESNGQPENNYKTTPPVLDSDGSFFLYSRLTVDKSRWQQGNVFSCSVMHEALHNHYTQKSLSLSPG light 2: DIVMTQSPKFMSTSVGDRVTVTCKASQNVGTNVAWFQQKPGQSPKVLIYSASYRYSGVPDRFTGSGSGTDFTLTISNVQSEDLAEYFCQQYHTYPLTFGGGTKLEINRTVAAPSVFIFPPSDEQLKSGTASVVCLLNNFYPREAKVQWKVDNALQSGNSQESVTEQDSKDSTYSLSSTLTLSKADYEKHKVYACEVTHQGLSSPVTKSFNRGEC	0.068	47.5				
bsG1-huCD3-FEAL×CD30-T105-FEAR (bispecific antibody, human IgG1, kappa, lambda, Bispecific IgG1 by Fab-arm exchange of the two parental antibodies; also called bsIgG1-huCD3-FEAL×CD30-T105-FEAR) heavy 1: not shown light 1: not shown heavy 2: not shown light 2: DIVMTQSQKFMSTSVGDRVSVTCKASQNVNTNVAWYQQKPGQSPEALIYSASYRYSGVPDRFTGSGSGTDFTLTISNVQSEDLAEYFCQQYNSYPLTFGSGTKLEIKRTVAAPSVFIFPPSDEQLKSGTASVVCLLNNFYPREAKVQWKVDNALQSGNSQESVTEQDSKDSTYSLSSTLTLSKADYEKHKVYACEVTHQGLSSPVTKSFNRGEC	0.042	52.6	~0.2			
bsG1-huCD3-FEAL×CD30-T408-FEAR (bispecific antibody, human IgG1, kappa, lambda, Bispecific IgG1 by Fab-arm exchange of the two parental antibodies; also called bsIgG1-huCD3-FEAL×CD30-T408-FEAR; BisIgG1-huCD3-FEAL×CD30-T408-FEAR) heavy 1: not shown light 1: not shown heavy 2: QVQLQQPGAELVRPGASVKLSCKASGYTFTSYWINWVKQRPGQGLEWIGNIYPSDSYSNYNQKFKDKATLTVDKSSSTAYMQLSSPTSEDSAVYYCTLGSYWGQGTLVTVSAASTKGPSVFPLAPSSKSTSGGTAALGCLVKDYFPEPVTVSWNSGALTSGVHTFPAVLQSSGLYSLSSVVTVPSSSLGTQTYICNVNHKPSNTKVDKRVEPKSCDKTHTCPPCPAPEFEGGPSVFLFPPKPKDTLMISRTPEVTCVVVAVSHEDPEVKFNWYVDGVEVHNAKTKPREEQYNSTYRVVSVLTVLHQDWLNGKEYKCKVSNKALPAPIEKTISKAKGQPREPQVYTLPPSREEMTKNQVSLTCLVKGFYPSDIAVEWESNGQPENNYKTTPPVLDSDGSFFLYSRLTVDKSRWQQGNVFSCSVMHEALHNHYTQKSLSLSPG light 2: DVVMTQTPLTLSVTIGQPASISCKSSQSLSDSDGKTYLNWLLQRPGQSPKRLIYLVSKLDSGVPDRFTGSGSGTDFTLKISRVEAEDLGVYYCWQGAHFPRTFGGGTKLEIKRTVAAPSVFIFPPSDEQLKSGTASVVCLLNNFYPREAKVQWKVDNALQSGNSQESVTEQDSKDSTYSLSSTLTLSKADYEKHKVYACEVTHQGLSSPVTKSFNRGEC	0.226	41.3		binds		
bsG1-huCD3-FEAL×CD30-hAC10-FEAR (bispecific antibody, human IgG1, kappa, lambda, Bispecific IgG1 by Fab-arm exchange of the two parental antibodies) heavy 1: not shown light 1: not shown heavy 2: QVQLVQSGAEVKKPGASVKVSCKASGYTFTDYYITWVRQAPGQGLEWMGWIYPGSGNTKYNEKFKGRVTMTRDTSISTAYMELSRLRSDDTAVYYCANYGNYWFAYWGQGTLVTVSSASTKGPSVFPLAPSSKSTSGGTAALGCLVKDYFPEPVTVSWNSGALTSGVHTFPAVLQSSGLYSLSSVVTVPSSSLGTQTYICNVNHKPSNTKVDKRVEPKSCDKTHTCPPCPAPEFEGGPSVFLFPPKPKDTLMISRTPEVTCVVVAVSHEDPEVKFNWYVDGVEVHNAKTKPREEQYNSTYRVVSVLTVLHQDWLNGKEYKCKVSNKALPAPIEKTISKAKGQPREPQVYTLPPSREEMTKNQVSLTCLVKGFYPSDIAVEWESNGQPENNYKTTPPVLDSDGSFFLYSRLTVDKSRWQQGNVFSCSVMHEALHNHYTQKSLSLSPG light 2: not shown	0.032	37.8	~0.06		binds	
bsG1-huCD3-FEAL×CD30-MDX060-FEAR (bispecific antibody, human IgG1, kappa, lambda, also called bsG1-huCD3xCD30-MDX060) heavy 1: not shown light 1: not shown heavy 2: QVQLQQWGAGLLKPSETLSLTCAVYGGSFSAYYWSWIRQPPGKGLEWIGDINHGGGTNYNPSLKSRVTISVDTSKNQFSLKLNSVTAADTAVYYCASLTAYWGQGSLVTVSSASTKGPSVFPLAPSSKSTSGGTAALGCLVKDYFPEPVTVSWNSGALTSGVHTFPAVLQSSGLYSLSSVVTVPSSSLGTQTYICNVNHKPSNTKVDKRVEPKSCDKTHTCPPCPAPEFEGGPSVFLFPPKPKDTLMISRTPEVTCVVVAVSHEDPEVKFNWYVDGVEVHNAKTKPREEQYNSTYRVVSVLTVLHQDWLNGKEYKCKVSNKALPAPIEKTISKAKGQPREPQVYTLPPSREEMTKNQVSLTCLVKGFYPSDIAVEWESNGQPENNYKTTPPVLDSDGSFFLYSRLTVDKSRWQQGNVFSCSVMHEALHNHYTQKSLSLSPG light 2: DIQMTQSPTSLSASVGDRVTITCRASQGISSWLTWYQQKPEKAPKSLIYAASSLQSGVPSRFSGSGSGTDFTLTISSLQPEDFATYYCQQYDSYPITFGQGTRLEIKRTVAAPSVFIFPPSDEQLKSGTASVVCLLNNFYPREAKVQWKVDNALQSGNSQESVTEQDSKDSTYSLSSTLTLSKADYEKHKVYACEVTHQGLSSPVTKSFNRGEC	0.033	53.7	~0.1			
bsG1-huCD3-FEAL×CD30-T215-FEAR (bispecific antibody, human IgG1, kappa, lambda, Bispecific IgG1 by Fab-arm exchange of the two parental antibodies; also called bsIgG1-huCD3-FEAL×CD30-T215-FEAR) heavy 1: not shown light 1: not shown heavy 2: not shown light 2: DIVMTQSQKFMSTSVGDRVSVTCKASQNVFTNVAWYQQKLGQSPKPLIYSASYRYSGVPDRFTGSGSGTDFTLTISDVQSEDLAEYFCQQYNSYPVTFGAGTKLELKRTVAAPSVFIFPPSDEQLKSGTASVVCLLNNFYPREAKVQWKVDNALQSGNSQESVTEQDSKDSTYSLSSTLTLSKADYEKHKVYACEVTHQGLSSPVTKSFNRGEC	0.077	42.8		binds		
IgG1-CD30-T215-FEAR (antibody, V domains shown, Monospecific, bivalent parental antibody) VH: QVTLKESGPGILQPSQTLSLTCSFSGFSLSVSGMGVSWIRQPSGKGLEWLAHIHWDDDRRSNPSLRSRLTISKDTSNNQVFLKITSVDTADTATYYCARRPDLYGNYFFFDFWGQGTTLTVSS VL: DIVMTQSQKFMSTSVGDRVSVTCKASQNVFTNVAWYQQKLGQSPKPLIYSASYRYSGVPDRFTGSGSGTDFTLTISDVQSEDLAEYFCQQYNSYPVTFGAGTKLELKR				binds		
IgG1-CD30-T408-FEAR (antibody, V domains shown, Monospecific, bivalent parental antibody) VH: QVQLQQPGAELVRPGASVKLSCKASGYTFTSYWINWVKQRPGQGLEWIGNIYPSDSYSNYNQKFKDKATLTVDKSSSTAYMQLSSPTSEDSAVYYCTLGSYWGQGTLVTVSA VL: not shown						~0.7
